Laboratory results as given in patent EP3338799A1 (AlderBio Holdings LLC, dated 2018).

Key:
Test in all cases: surface plasmon resonance, 25 °C
rat IL-6 = molecular target: T1, rat IL-6 (rat, UniProt P20607 25-211)
T1 construct: also called IL-6 from rat
T1 sequence (looked up): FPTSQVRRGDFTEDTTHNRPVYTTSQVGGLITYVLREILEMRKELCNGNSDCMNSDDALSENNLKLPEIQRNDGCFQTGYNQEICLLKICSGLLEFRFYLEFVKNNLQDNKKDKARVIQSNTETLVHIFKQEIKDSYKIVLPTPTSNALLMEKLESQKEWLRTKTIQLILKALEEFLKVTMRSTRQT

cynomolgus monkey IL-6 = molecular target: T2, cynomolgus monkey IL-6 (cynomolgus monkey, UniProt P79341 28-212, limits assumed)
T2 construct: also called IL-6 of cynomolgus monkey
T2 sequence (looked up): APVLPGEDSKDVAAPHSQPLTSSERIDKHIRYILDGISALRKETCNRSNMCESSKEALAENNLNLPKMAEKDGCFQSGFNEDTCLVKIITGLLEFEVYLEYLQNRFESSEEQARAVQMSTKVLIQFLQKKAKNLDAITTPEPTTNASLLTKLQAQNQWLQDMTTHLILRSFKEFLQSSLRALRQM

human IL-6 = molecular target: T3, human IL-6 (human, UniProt P05231 30-212)
T3 construct: also called huIL-6; hIL-6

mouse IL-6 = molecular target: T4, mouse IL-6 (mouse, UniProt P08505 25-211)
T4 construct: also called IL-6 from mouse
T4 sequence (looked up): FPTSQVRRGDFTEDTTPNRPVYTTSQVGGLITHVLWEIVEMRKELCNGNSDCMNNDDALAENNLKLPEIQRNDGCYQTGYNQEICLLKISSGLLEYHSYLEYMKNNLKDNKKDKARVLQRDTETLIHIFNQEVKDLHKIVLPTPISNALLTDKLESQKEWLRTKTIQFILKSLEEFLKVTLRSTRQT

- Kd (rat IL-6): 1.4 nM
- Kd (cynomolgus monkey IL-6): 0.031 nM
- Kd (human IL-6): 0.004 nM
- Kd (mouse IL-6): 0.4 nM
B1: antibody Ab1 (antibody, human IgG1, kappa, N297A, V domains shown)
VH: EVQLVESGGGLVQPGGSLRLSCAASGFSLSNYYVTWVRQAPGKGLEWVGIIYGSDETAYATSAIGRFTISRDNSKNTLYLQMNSLRAEDTAVYYCARDDSSDWDAKFNLWGQGTLVTVSS
VL: AIQMTQSPSSLSASVGDRVTITCQASQSINNELSWYQQKPGKAPKLLIYRASTLASGVPSRFSGSGSGTDFTLTISSLQPDDFATYYCQQGYSLRNIDNAFGGGTKVEIKR
notes: It is a humanized (from rabbit), full length, aglycosylated antibody with human kappa and IgG gamma-1 constant regions, produced in Pichia pastoris; also called Ab1 monoclonal antibody; anti-IL-6 antibody Ab1
